Measured values: article PMC4357719, “Roles of Rad51 paralogs for promoting homologous recombination in Leishmania infantum”

Legend:
[1] = target: T1, LiRad51-3 (in 3-4-6 complex);LiRad51-4 (in 3-4-6 complex);LiRad51-6 (in 3-4-6 complex) (Leishmania infantum;Leishmania …, UniProt E9AHR7;A4HUT5;A4I499 1-687;1-518;1-649, ||); test: competition EMSA; 0-40 nM complex; preferred substrate in mixture; 25 mM MOPS pH 7.0, 0.2% Tween-20, 1 mM CaCl2, 2 mM DTT; 25 nM 32P-DNA; 37 C 10 min, then 0.2% glutaraldehyde 15 min; 8% TBE acrylamide gel; conditions: protein: recombinant;recombinant;recombinant; copies: 1;1;1; label: 32P on strand 3 (JYM1745); D-loop: 1:2 with unpaired bubble, 3 paired to 2 in the bubble
[2] = target: T1, LiRad51-3 (in 3-4-6 complex);LiRad51-4 …; test: competition EMSA; 0-40 nM complex; mixture; 25 mM MOPS pH 7.0, 0.2% Tween-20, 1 mM CaCl2, 2 mM DTT; 25 nM 32P-DNA; 37 C 10 min, then 0.2% glutaraldehyde 15 min; 8% TBE acrylamide gel; conditions: protein: recombinant;recombinant;recombinant; copies: 1;1;1; label: 32P on strand 1; fork 1:2

Row | Binder | binding result [1] | binding result [2]
1 | D-loop (JYM1395/JYM1396/JYM1745) (structured_DNA) DNA 1: GCCAGGGACGGGGTGAACCTGCAGGTGGGCGGCTGCTCATCGTAGGTTAGTATCGACCTATTGGTAGAATTCGGCAGCGTCATGCGACGGC DNA 2: GCCGTCGCATGACGCTGCCGAATTCTACCACGCTACTAGGGTGCCTTGCTAGGACATCTTTGCCCACCTGCAGGTTCACCCCGTCCCTGGC DNA 3: AAGATGTCCTAGCAAGGCACCCTAGTAGC | binds | –
2 | splayed arm (JYM925/JYM926) (structured_DNA) DNA 1: GGGTGAACCTGCAGGTGGGCAAAGATGTCCTAGCAATGTAATCGTCAAGCTTTATGCCGT DNA 2: ACGCTGCCGAATTCTACCAGTGCCAGCGACGGACATCTTTGCCCACCTGCAGGTTCACCC | – | binds
